Experimental data reported in article PMC3547832, “Secondary Metabolism and Development Is Mediated by LlmF Control of VeA Subcellular Localization in Aspergillus nidulans” (PLoS Genetics, 2013).

What was measured:
[1] = molecular target: LaeA (Aspergillus nidulans, UniProt C8VQG9); conditions: labelled compound; room temperature, UV on ice 30 min; GST-LaeA
[2] = molecular target: T1, His6-VeA-S-tag (recombinant) (Aspergillus nidulans, UniProt C8VTV4 1-573); assay: pull-down; 10 µg purified GST tagged protein, glutathione sepharose and purified His6-VeA-S-tag, 3 hours at 4°C in PBS buffer with 1 mM DTT, pH 7.3; anti-S-tag immunoblot; conditions: both partners purified
T1 construct: VeA, Aspergillus nidulans; E. coli codon-optimized version obtained from Reinhard Fischer, EcoRI-XhoI fragment in pRSF-1b; source: E. coli BL21 (λDE3), purified (Ni-NTA); not shown: His6, N-terminal, kept; S-tag, C-terminal, kept
T1 sequence (looked up): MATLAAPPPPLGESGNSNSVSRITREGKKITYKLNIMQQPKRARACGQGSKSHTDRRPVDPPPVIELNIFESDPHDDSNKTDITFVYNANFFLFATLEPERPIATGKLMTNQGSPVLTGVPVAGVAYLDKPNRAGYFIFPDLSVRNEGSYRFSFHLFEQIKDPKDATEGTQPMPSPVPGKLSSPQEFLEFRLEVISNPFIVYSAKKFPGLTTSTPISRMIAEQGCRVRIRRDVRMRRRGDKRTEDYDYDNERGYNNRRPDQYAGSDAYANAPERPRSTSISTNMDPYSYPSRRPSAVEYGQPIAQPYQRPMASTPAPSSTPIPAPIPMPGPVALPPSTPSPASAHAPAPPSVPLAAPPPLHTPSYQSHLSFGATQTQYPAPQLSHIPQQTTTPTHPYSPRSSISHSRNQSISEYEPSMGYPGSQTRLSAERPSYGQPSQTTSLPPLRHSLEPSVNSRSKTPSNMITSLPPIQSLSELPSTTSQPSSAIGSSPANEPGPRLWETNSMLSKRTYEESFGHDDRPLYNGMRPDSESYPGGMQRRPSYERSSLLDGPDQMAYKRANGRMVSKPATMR

Molecule | UV crosslinking of 3H-SAM, SDS-PAGE and tritium phosphor screen [1] | binding result [2]
C[S+](CC[C@H](N)C(=O)O)C[C@H]1O[C@@H](n2cnc3c(N)ncnc32)[C@H](O)[C@@H]1O (stereo partly drawn) [S-adenosyl methionine] | these results indicate that both LaeA and LlmF have the ability to bind SAM | –
GST-VelB (recombinant) (natural protein, Aspergillus nidulans, UniProt C8VTS4 1-369, looked up, VelB, Aspergillus nidulans; GST fusion in pGEX; source: E. coli BL21 (λDE3), purified (glutathione sepharose 6B)) MYAVEDRAHSGHHPPPLSMDRIPPPSTMYPSSAGPSAMVSPAGQPEPESLSTVHDGRIWSLQVVQQPIRARMCGFGDKDRRPITPPPCIRLIVKDAQTQKEVDINSLDSSFYVVMADLWNADGTHEVNLVKHSATSPSISTAMSSSYPPPPHPTSSDYPASYQTNPYGQPVGQPVGQPVGYAGVGNYYGGSTQLQYQNAYPNPQAQYYQPMYGGMAQPQMPAAQPVTPGPGGMFTRNLIGCLSASAYRLYDTEDKIGVWFVLQDLSVRTEGIFRLKFSFVNVGKSVSDLPQSDIAEVINKGTAPILASTFSEPFQVFSAKKFPGVIESTPLSKVFANQGIKIPIRKDGVKGQGSRGRHSDEDDGLDNEY | – | binds
GST-LaeA (recombinant) (natural protein, Aspergillus nidulans, UniProt C8VQG9 1-374, looked up, LaeA, Aspergillus nidulans, locus AN0807; GST fusion in pGEX; source: E. coli BL21 (λDE3), purified (glutathione sepharose 6B)) MFEMGPVGTRLPAMTSPAHNHYSYHSPTSSDRGRSRQNSDAMDIQSITEREPATRYAVAGGPAPWNRNGSPSMSPMYSNNSERNQFHEENGRTYHGFRRGMYFLPCDEQEQDRLDIFHKLFTVARVSESLIYAPHPTNGRFLDLGCGTGIWAIEVANKYPDAFVAGVDLAPIQPPNHPKNCEFYAPFDFEAPWAMGEDSWDLIHLQMGCGSVMGWPNLYRRIFAHLRPGAWFEQVEIDFEPRCDDRSLDGTALRHWYDCLKQATAETMRPIAHSSRDTIKDLQDAGFTEIDHQIVGLPLNPWHQDEHERKVARWYNLAVSESIENLSLAPFSRVYRWPLERIQQLAADVKSEAFNKEIHAYNILHIYQARKPLR | – | binds
